Test results: patent US20140112930A1 (published 2014)

T1: wild-type human Ang-2 (hAng-2-WT) (human, UniProt O15123 19-496)
T1 construct: called full-length wild-type; also called Full-length wild-type human Ang-2
T1 sequence: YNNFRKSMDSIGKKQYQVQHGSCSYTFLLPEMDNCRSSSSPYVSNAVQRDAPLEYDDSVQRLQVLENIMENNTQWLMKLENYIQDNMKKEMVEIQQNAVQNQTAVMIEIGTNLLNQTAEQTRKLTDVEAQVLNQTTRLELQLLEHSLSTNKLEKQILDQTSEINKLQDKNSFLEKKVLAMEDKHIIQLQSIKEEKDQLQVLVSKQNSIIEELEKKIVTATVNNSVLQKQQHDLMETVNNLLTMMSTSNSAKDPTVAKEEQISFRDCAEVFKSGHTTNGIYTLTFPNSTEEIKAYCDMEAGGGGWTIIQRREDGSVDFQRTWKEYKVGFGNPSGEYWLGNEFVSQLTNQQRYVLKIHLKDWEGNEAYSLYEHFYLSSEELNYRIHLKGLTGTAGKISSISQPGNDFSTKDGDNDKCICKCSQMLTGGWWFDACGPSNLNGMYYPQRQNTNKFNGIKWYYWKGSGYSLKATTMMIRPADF

T2: Monomeric hAng-2FD (human, UniProt O15123 282-496)
T2 construct: also called fibrinogen-like domain of human Ang2; Human Ang-2FD
T2 sequence: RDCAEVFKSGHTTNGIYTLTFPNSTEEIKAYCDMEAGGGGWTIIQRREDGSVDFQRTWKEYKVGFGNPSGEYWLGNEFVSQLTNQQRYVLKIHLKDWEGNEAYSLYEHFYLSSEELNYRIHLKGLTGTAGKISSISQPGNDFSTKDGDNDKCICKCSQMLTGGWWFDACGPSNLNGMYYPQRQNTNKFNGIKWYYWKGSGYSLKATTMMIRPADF


Assays:
[1] = target: T1, wild-type human Ang-2 (hAng-2-WT); experiment: SPR, captured Ab
[2] = target: T2, Monomeric hAng-2FD; experiment: SPR, captured Ab
[3] = target: T3, Dimeric Mouse Ang-2FD conjugated to human IgG1 (mouse (Mus musculus); human); experiment: competition ELISA, 16.67 nM Ab, coated hTie-2-mFc
T3 construct: also called Mouse Ang-2FD-hFc
Procedure: (§1) The plate was then blocked with PBS (Irvine Scientific, Santa Ana, Calif.) containing 0.5% BSA (Sigma-Aldrich Corp., St. Louis, Mo.) for one hour at room temperature. […] Human, mouse or monkey Ang-2FD protein conjugated to human IgG (Ang-2FD-hFc) were added to final concentrations of 2 nM, 8 nM, or 2 nM respectively and incubated for one hour at room temperature. The antibody/Ang-2FD-Fc mixture was then added to the plate containing hTie-2-mFc and incubated for one hour at room temperature. Detection of Ang-2FD-hFc bound to hTie-2-mFc protein was determined with Horse-Radish Peroxidase (HRP) conjugated to a-human IgG antibody (Jackson Immuno Research Lab, West Grove, Pa.) and developed by standard colorimetric response using tetramethylbenzidine (TMB) substrate (BD Biosciences, San Jose, Calif.). Absorbance was read at OD₄₅₀ for 0.1 sec.

[4] = target: T4, Dimeric Human Ang-2FD conjugated to human IgG1 (human); experiment: competition ELISA, 16.67 nM Ab, coated hTie-2-mFc
T4 construct: also called Human Ang-2FD-hFc; hAng-2FD-hFc
Procedure: as §1

[5] = target: T5, Dimeric Monkey Ang-2FD conjugated to human IgG1 (monkey (Macca fascicularis); human); experiment: competition ELISA, 16.67 nM Ab, coated hTie-2-mFc
T5 construct: also called Monkey Ang-2FD-hFc
Procedure: as §1

[6] = target: T3, Dimeric Mouse Ang-2FD conjugated to …; experiment: SPR, captured Ab, RT
Procedure: (§2) Antibody was captured on a goat anti-mouse IgG polyclonal antibody surface, a goat anti-human κ polyclonal antibody (Southern Biotech, Birmingham, Ala.) surface or a goat anti-human IgG polyclonal antibody (Jackson Immuno Research Lab, West Grove, Pa.) surface created through direct amine coupling to a BIACORE™ CM5 sensor chip to form a captured antibody surface. […] Antigen-antibody binding and dissociation were monitored in real time at room temperature. Kinetic analysis was performed to calculate KD and half-life of antigen/antibody complex dissociation.

[7] = target: T4, Dimeric Human Ang-2FD conjugated to …; experiment: SPR, captured Ab, RT
Procedure: as §2

[8] = target: T5, Dimeric Monkey Ang-2FD conjugated to …; experiment: SPR, captured Ab, RT
Procedure: as §2

[9] = target: T6, human bow-Ang-2 tetrameric construct (hBA2) (human); experiment: SPR, captured Ab
T6 construct: also called human BA2; hBA2-hIgG1

[10] = target: T7, Mouse Ang-2FD-hFc (mouse (Mus musculus)); experiment: blocking ELISA, 16.67 nM antibody, Ang-2FD-hFc to coated hTie-2-mFc
T7 construct: also called dimeric mouse Ang-2FD
Procedure: as §1

Row | Binder | Kd [1] | T1/2 [1] | Kd [2] | T1/2 [2] | Percent Blocking of Ang-2FD Binding to Tie-2 [3] | Percent Blocking of Ang-2FD Binding to Tie-2 [4] | Percent Blocking of Ang-2FD Binding to Tie-2 [5] | Kd [6] | T1/2 [6] | Kd [7] | T1/2 [7] | Kd [8] | T1/2 [8] | Kd [9] | T1/2 [9] | Percent Blocking of Ang-2FD Binding to Tie-2 [10]
1 | H1M724N (antibody, V domains shown) VH: QVQLVESGGGVVQPGRSLRLSCAASGFTLSNYGMHWVRQAPGKGLEWVAVIWHDGSNTYYADSVKGRFTISRDNSKNTLYLQMNSLRAEDTAVYYCTREGLDFWSGYYPNWFDPWGQGTLVTVSS VL: DIQMTQSPSSLSASVGDRVTITCRASQGIRNDLGWYQQKPGKAPKRLIYAASNLQGGVPSRFSGSGSGTEFTLTISSLQPEDFAAYYCLQHNIYPLTFGGGTKVEIK | 0.0331 nM | 568 min | 1.75 nM | 17.4 min | 96.6% | 99.5% | 95.2% | 0.694 nM | 16 min | 0.179 nM | 42.7 min | 0.73 nM | 25.7 min | – | – | –
2 | H1H695P (antibody, V domains shown) VH: QVQLVESGGGVVQPGRSLRLSCAASGFTFSSYGMHWVRQAPGKGLEWVAVMWYDETNKYYADSVKGRFTISRDNSKNTLYLQMNSLRAEDTAVYYCARYSGYEDYYHGMDVWGQGTTVTVS VL: EIVMTQSPATPSVSPGERATLSCRASQSISSNLAWYQQKPGQAPRLLIYGASTRATGIPARFSGSGSGTEFTLTISSLQSEDFAVYYCQHYNNWITFGQGTRLEIK | 0.0311 nM | 1770 min | 1.12 nM | – | – | – | – | 0.347 nM | 124 min | 0.245 nM | 147 min | 0.44 nM | 84.1 min | 0.0401 nM | 254 min | –
3 | H1M728N (antibody, V domains shown) VH: EVQLVESGGDLVQPGGSLRLSCTASGFTFSKYWMTWVRQAPGRGLEWVANIKEDGNEKYFLDSVKGRFTISRDNAKDLLFLQMNSLRGEDTAVYYCVRDRGIEVAGPFDYWGQGTLVTVSS VL: DIQMTQSPSTLSASVGDRVTVTCRASQTIINWLAWYQQKPGKAPKLLISKASSLESGVPSRFSGSGSGTEFTLTISSLQPDDFATYYCQQYNRYWTFGQGTMVEIK | 0.0338 nM | 725 min | 1.17 nM | 33.9 min | 83.9% | 98.5% | 97.1% | 5.65 nM | 9.9 min | 0.137 nM | 58.4 min | 1.58 nM | 69.5 min | – | – | –
4 | H2M730N (antibody, V domains shown) VH: EVQLVESGGGLVQPGGSLRLSCAASGFAFRSYWMTWVRQAPGKGLEWVANIQQDGNDKYYVDSVKGRFTISRDNAKNSLYLQMNSLRAEDTAVYYCARDTGIAEAGPFDYWGQGTLVTVSS VL: DIQMTQSPSTLSASVGDRVSITCRASQTIISWLAWYQQKPGKAPRLLIYKASSLESGVPSRFSGSGSGTEFTLTINSLQPDDFATYYCQQYNRYWTFGQGTKVEIK | 0.0492 nM | 519 min | 2.06 nM | 24.4 min | 55% | 98.9% | 97.3% | – | – | 0.21 nM | 47 min | 0.842 nM | 36.6 min | – | – | –
5 | H1H685P (antibody, human IgG1, V domains shown, Fully human antibody, human IgG1) VH: EVQLVESGGGLVQPGGSLRLSCAASGFTFSSYDIHWVRQATGKGLEWVSAIGPAGDTYYPGSVKGRFTISRENAKNSLYLQMNSLRAGDTAVYYCARGLITFGGLIAPFDYWGQGTLVTVSS VL: EIVLTQSPGTLSLSPGERATLSCRASQSVSSTYLAWYQQKPGQAPRLLIYGASSRATGIPDRFSGSGSGTDFTLTISRLEPEDFAVYYCQHYDNSQTFGQGTKVEIK | – | – | – | – | – | – | – | – | – | – | – | – | – | – | – | 97.1%
6 | H1H696P (antibody, V domains shown) VH: QVQLVESGGGLVKPGGSLRLSCAASGFTFSDYYMSWIRQAPGKGLEWVSYISYTGRTIYYADSVKGRFTISRDNAKNSLYLQMNSLRAEDTAVYYCARDTDYGDFFDYWGQGTLVTVSS VL: DIQMTQSPSSLSASVGDRVTITCRASQGISNYLAWFQQKPGKAPKSLIYAASSLQSGVPSKFSGSGSGTDFTLTISSLQPEDFATYYCQQYNSYPLTFGGGTKVEIK | 0.0403 nM | 643 min | 38.4 nM | 0.2 min | – | – | – | 0.402 nM | 37.6 min | 0.289 nM | 38.8 min | 0.354 nM | 36.6 min | 0.111 nM | 51.5 min | –
7 | H2M750N (antibody, V domains shown) VH: QVKLVESGGGVVQPGRSLRVSCAASGFTFSSYGMHWVRQAPGKGLEWLAIIWYDGDNKYYSDSVKGRFTISRDNSKNTLYLQMNSLRAEDTAEYYCVRDASIASRFLDYWGQGTLVTVSS VL: DIQMTQSPSSLSASIGDRVTITCRATQDINNYLAWFQQKPGKAPKSLIYATSNLQSGVPSKFSGSGSGTDYTLTISSLQPEDFSTYYCQQYHSYPLTFGGGTKVEIK | 0.0408 nM | 991 min | 4.42 nM | 21.5 min | 53.7% | 99.4% | 97.4% | – | – | 0.362 nM | 32.2 min | 1.47 nM | 23 min | – | – | –
8 | H1H690P (antibody, V domains shown) VH: EVQLVESGGGLVQPGESLRLSCAASGFTFSSYAMSWVRQGPGKGLEWVSSITGSGDTTYYADSVKGRFTISRDNSKNTLYLHMNSLRAEDTAVYYCAKDFLDYSTYLAFDLWGQGTMVTVSS VL: EIVLTQSPATLSLSPGERATLSCRASQSVSSYLTWYQQKPGQAPRLLSYDASNRATGIPARFSGSGSGTDFTLTISSLEPEDFAVYYCQQRSNWPLTFGGGTKVEIK | 0.0124 nM | 1570 min | 0.594 nM | 25.2 min | – | – | – | 0.0913 nM | 105 min | 0.079 nM | 126 min | 0.0556 nM | 195 min | 0.0179 nM | 299 min | –
9 | H1H693P (antibody, V domains shown) VH: EVQLVESGGGLVQPGESLRLSCAASGFTFSSYAMSWVRQGPGKGLEWVSSISGSGGTTYYADSVEGRFTISRDNSKNTLYLHMNSLRAEDTAVYYCAKDFLDYSTYLAFDLWGQGTMVTVSS VL: DIQMTQSPSSVSASVGDRVTITCRASQGISSWLAWYQQKPGKAPKLLIYAASSLQSGVPSRFSGSGSGTDFTLTISSLQPEDFATYYCQQANSFPRTFGQGTKVEIK | 0.425 nM | 100 min | 44.8 nM | 0.61 min | – | – | – | 0.446 nM | 63.7 min | 0.5 nM | 37.1 min | 1.17 nM | 17.6 min | 0.299 nM | 28.7 min | –
